Experimental data published in patent US20080299638A1 (priority 2004, published 2008).

System: HBV-DNA in supernatant of 2.2.15 cell culture
Assay: HBV-DNA dot blot in supernatant of 2.2.15 cell culture
Format: cell-based, hepatitis B virus
Description: Extraction of HBV-DNA from 2.2.15 cells supernatant: Grow 200000 cells/ml 2.2.15 cell on 24-well plate, 1 ml per well, add drugs after 24 hours incubation, change drug solution every 4 days with the same concentration, collect supernatant from cell culture after 8 days of incubation counted from the day drugs added into the culture, precipitate with polyethylene glycol, digest with proteinase K, extract with phenol:chloroform:isopentanol, nucleic acid precipitation by absolute ethanol and so on procedures, vacuum dry, re-dissolve in TE buffer as sample.
Dot blot: place dots: take 20 μl sample (contains 25 μg DNA), denature, neutralize, serial dilute 20×SSC buffer to 1:8 dilution on nitrocellulose membrane, oven dry, pre-hybridize, hybridize, wash membrane, radioactive self exposure and so on procedures. Develop X ray film with conventional method. Scan developed film with scanner, measure density with gel-pro software, calculate suppression rate and IC50.

B1: Arginase: Pegylated recombinant human arginase (BCT-100); human arginase I with N-terminal six-histidine tag, SEQ ID NO: 3 (protein, listed as Homo sapiens)
chain: MHHHHHHMSAKSRTIGIIGAPFSKGQPRGGVEEGPTVLRKAGLLEKLKEQECDVKDYGDLPFADIPNDSPFQIVKNPRSVGKASEQLAGKVAQVKKNGRISLVLGGDHSLAIGSISGHARVHPDLGVIWVDAHTDINTPLTTTSGNLHGQPVSFLLKELKGKIPDVPGFSWVTPCISAKDIVYIGLRDVDPGEHYILKTLGIKYFSMTEVDRLGIGKVMEETLSYLLGRKKRPIHLSFDVDGLDPSFTPATGTPVVGGLTYREGLYITEEIYKTGLLSGLDIMEVNPSLGKTPEEVTRTVNTAVAITLACFGLAREGNHKPIDYLNPPK
modifications: PEGylated
% suppression of HBV-DNA in cell culture supernatant (Arginase 1.25 μg/ml (unit as headed), batch 2, day 8): 15.7769%
HBV-DNA in cell culture supernatant, Original Solution (IOD) (Arginase 1.25 μg/ml (unit as headed), batch 2, day 8, control 4651.67): 3917.78 IOD
% suppression of HBV-DNA in cell culture supernatant (Arginase 2.5 μg/ml (unit as headed), batch 1, day 8): 24.9152%
HBV-DNA in cell culture supernatant, Original Solution (IOD) (Arginase 2.5 μg/ml (unit as headed), batch 1, day 8, control 2375.1): 1783.34 IOD
% suppression of HBV-DNA in cell culture supernatant (Arginase 2.5 μg/ml (unit as headed), batch 2, day 8): 11.466%
HBV-DNA in cell culture supernatant, Original Solution (IOD) (Arginase 2.5 μg/ml (unit as headed), batch 2, day 8, control 4651.67): 4118.31 IOD
% suppression of HBV-DNA in cell culture supernatant (Arginase 5 μg/ml (unit as headed), batch 1, day 8): 11.9877%
HBV-DNA in cell culture supernatant, Original Solution (IOD) (Arginase 5 μg/ml (unit as headed), batch 1, day 8, control 2375.1): 2090.38 IOD
% suppression of HBV-DNA in cell culture supernatant (Arginase 5 μg/ml (unit as headed), batch 2, day 8): 43.8243%
HBV-DNA in cell culture supernatant, Original Solution (IOD) (Arginase 5 μg/ml (unit as headed), batch 2, day 8, control 4651.67): 2613.11 IOD
% suppression of HBV-DNA in cell culture supernatant (Arginase 10 μg/ml (unit as headed), batch 1, day 8): 29.2409%
HBV-DNA in cell culture supernatant, Original Solution (IOD) (Arginase 10 μg/ml (unit as headed), batch 1, day 8, control 2375.1): 1680.6 IOD
% suppression of HBV-DNA in cell culture supernatant (Arginase 10 μg/ml (unit as headed), batch 2, day 8): 38.0549%
HBV-DNA in cell culture supernatant, Original Solution (IOD) (Arginase 10 μg/ml (unit as headed), batch 2, day 8, control 4651.67): 2881.48 IOD
% suppression of HBV-DNA in cell culture supernatant (Arginase 20 μg/ml (unit as headed), batch 1, day 8): 30.8113%
HBV-DNA in cell culture supernatant, Original Solution (IOD) (Arginase 20 μg/ml (unit as headed), batch 1, day 8, control 2375.1): 1643.3 IOD
% suppression of HBV-DNA in cell culture supernatant (Arginase 20 μg/ml (unit as headed), batch 2, day 8): 47.7577%
HBV-DNA in cell culture supernatant, Original Solution (IOD) (Arginase 20 μg/ml (unit as headed), batch 2, day 8, control 4651.67): 2430.14 IOD
IC50, HBV-DNA dot blot in supernatant (batch 1, 8 days of incubation): 16.04 IU/ml
IC50, HBV-DNA dot blot in supernatant (batch 2, 8 days of incubation): 10.31 IU/ml
IC50, HBV-DNA dot blot in supernatant (two batches average, 8 days of incubation): 13.18 IU/ml
IC50, HBV-DNA dot blot in supernatant (two batches average, 8 days of incubation, listed as arginase): 13.18±4.05 IU/ml
IC50, HBV-DNA dot blot in supernatant (two batches average, 8 days of incubation, listed as pegylated recombinant arginase): 13.18±0.45 IU/ml
